# Reference: paper PMC12239582, “The cyclic di-GMP receptor YcgR links the second messenger with the putrescine quorum sensing system in modulation of Dickeya oryzae motility” (mBio, 2025)
# T1: SpeA-His (Dickeya oryzae EC1, UniProt A0AB39IRQ5 1-658)
# T1 sequence (looked up): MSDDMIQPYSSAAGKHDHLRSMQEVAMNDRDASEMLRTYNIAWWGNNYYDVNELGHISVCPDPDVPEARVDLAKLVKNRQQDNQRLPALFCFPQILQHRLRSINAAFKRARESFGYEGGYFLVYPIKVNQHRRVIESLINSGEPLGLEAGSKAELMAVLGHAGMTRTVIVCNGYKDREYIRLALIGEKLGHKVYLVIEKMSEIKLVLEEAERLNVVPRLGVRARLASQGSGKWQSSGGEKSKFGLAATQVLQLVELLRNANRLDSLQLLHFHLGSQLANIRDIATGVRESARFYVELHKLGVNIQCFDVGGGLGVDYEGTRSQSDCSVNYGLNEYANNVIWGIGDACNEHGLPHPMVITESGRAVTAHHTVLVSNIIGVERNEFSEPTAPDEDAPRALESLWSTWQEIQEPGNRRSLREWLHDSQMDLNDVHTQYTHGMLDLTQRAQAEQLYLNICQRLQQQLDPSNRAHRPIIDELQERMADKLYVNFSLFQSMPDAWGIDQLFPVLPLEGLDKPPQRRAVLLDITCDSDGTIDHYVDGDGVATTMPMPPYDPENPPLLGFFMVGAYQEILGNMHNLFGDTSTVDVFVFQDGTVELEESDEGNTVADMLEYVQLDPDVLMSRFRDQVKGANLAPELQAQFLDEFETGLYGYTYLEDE
# Target: T1, SpeA-His
# Assay: cell-based or functional assay
binder,measurement,value
GST-YcgR (natural protein) MDVVDDNMKEQYARRGKMAICATLRGLQKQDATVMVYHTHGQFISKILEVDSDEEEFLFDLGALERENSRALFAGELGFVAETAGAKVEFRTTIIRTVEHDNLPAFCAAIPDVLYYIQRRNFFRINSPAWPPMVCRGELPDSTYFEFNLKDLSLGGLCMYTDDQGLAVLFEPGMILKNVDVDLASYGQFCLDMEFVNHATTKVVDSKGEVKQIERLSFKFPTLSAVQERGLQQVITELELDQNEKRKRLR,"yield of agmatine made by SpeA in vitro (OPA fluorescence) with YcgR added at a 2:1 ratio, against the reaction without YcgR; 75% increase at 1 h to about 160% at 2 h",~160%
